Assay results taken from PMC8208582, “Crosstalk between H2A variant-specific modifications impacts vital cell functions” (PLoS Genetics, 2021).

B1: recombinant H2A.W.6 (natural protein, Arabidopsis, UniProt Q9FJE8 1-150, looked up)
chain: MESTGKVKKAFGGRKPPGAPKTKSVSKSMKAGLQFPVGRITRFLKKGRYAQRLGGGAPVYMAAVLEYLAAEVLELAGNAARDNKKSRIIPRHLLLAIRNDEELGKLLSGVTIAHGGVLPNINSVLLPKKSATKPAEEKATKSPVKSPKKA
notes: histone H2A.W.6 of Arabidopsis; source: E. coli BL21 (DE3), purified (Ni-NTA under denaturing conditions, thrombin, SP sepharose)
B2: recombinant H2A.W.7 (natural protein, Arabidopsis, UniProt Q94F49 1-150, looked up)
chain: MESSQATTKPTRGAGGRKGGDRKKSVSKSVKAGLQFPVGRIARYLKKGRYALRYGSGAPVYLAAVLEYLAAEVLELAGNAARDNKKNRINPRHLCLAIRNDEELGRLLHGVTIASGGVLPNINPVLLPKKSTASSSQAEKASATKSPKKA
notes: histone H2A.W.7 of Arabidopsis; source: E. coli BL21 (DE3), purified (Ni-NTA under denaturing conditions, thrombin, SP sepharose)
B3: recombinant H2A.13 (natural protein, Arabidopsis, UniProt Q9LHQ5 1-132, looked up)
chain: MAGRGKTLGSGVAKKSTSRSSKAGLQFPVGRIARFLKNGKYATRVGAGAPVYLAAVLEYLAAEVLELAGNAARDNKKTRIVPRHIQLAVRNDEELSKLLGDVTIANGGVMPNIHSLLLPKKAGASKPSADED
notes: histone H2A.13 of Arabidopsis; source: E. coli BL21 (DE3), purified (Ni-NTA under denaturing conditions, thrombin, SP sepharose)

Biological target: T1, recombinant H2B.9 (Arabidopsis, UniProt O23629 1-150)
T1 construct: histone H2B.9 (HTB9) of Arabidopsis; source: E. coli BL21 (DE3), purified (Ni-NTA under denaturing conditions, thrombin, SP sepharose)
Experiment: SEC; freeze-dried histones mixed at a 1:1 molar ratio in 7 M guanidine hydrochloride, step-wise dialysed from 2 M to 0.1 M NaCl refolding buffer, Superdex200 in 0.1 M NaCl refolding buffer; peak fractions on SDS-PAGE
Conditions: both partners purified

T1 sequence (O23629 whole entry): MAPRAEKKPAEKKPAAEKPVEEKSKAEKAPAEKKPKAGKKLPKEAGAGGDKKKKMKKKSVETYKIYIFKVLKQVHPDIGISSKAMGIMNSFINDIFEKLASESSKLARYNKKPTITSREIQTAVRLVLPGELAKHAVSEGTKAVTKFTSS

Binder	binding result
B1	binds
B2	binds
B3	binds
